Key:
[1] = molecular target: Siglec-10-Fc (soluble, recombinant) (UniProt Q96LC7); test: SPR
[2] = molecular target: HMGB1, disulfide form (recombinant) (UniProt P09429); test: SPR
Sequence of UniProt P09429 (P09429 whole entry): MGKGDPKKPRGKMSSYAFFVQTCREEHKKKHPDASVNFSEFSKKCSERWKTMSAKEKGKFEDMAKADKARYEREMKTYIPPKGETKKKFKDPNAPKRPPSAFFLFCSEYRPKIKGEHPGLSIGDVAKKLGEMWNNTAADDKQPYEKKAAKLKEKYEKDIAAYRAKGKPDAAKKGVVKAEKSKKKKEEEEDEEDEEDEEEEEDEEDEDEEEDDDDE

Sequence of UniProt Q96LC7 (Q96LC7 17-550): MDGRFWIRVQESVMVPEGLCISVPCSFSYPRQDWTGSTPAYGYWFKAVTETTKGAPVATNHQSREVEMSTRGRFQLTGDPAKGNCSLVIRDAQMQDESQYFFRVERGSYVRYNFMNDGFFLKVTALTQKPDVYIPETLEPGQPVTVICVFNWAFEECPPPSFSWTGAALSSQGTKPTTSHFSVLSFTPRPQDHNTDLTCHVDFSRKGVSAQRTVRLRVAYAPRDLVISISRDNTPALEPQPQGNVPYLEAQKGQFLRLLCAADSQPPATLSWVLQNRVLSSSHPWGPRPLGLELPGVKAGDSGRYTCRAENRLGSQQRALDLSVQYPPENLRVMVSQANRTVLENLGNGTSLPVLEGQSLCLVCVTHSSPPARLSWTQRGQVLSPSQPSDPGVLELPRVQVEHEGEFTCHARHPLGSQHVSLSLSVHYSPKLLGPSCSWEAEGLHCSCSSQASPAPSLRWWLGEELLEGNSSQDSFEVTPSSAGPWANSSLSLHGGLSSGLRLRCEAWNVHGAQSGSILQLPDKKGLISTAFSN

## CD52-Fc (soluble CD52, recombinant) (from UniProt P31358 25-36) (Fc fusion)
[1]
  Kd: 0.565 µM
[2]
  Kd: 0.13 µM

From publication PMC6065011
